{"source": "patent US20140348829A1", "about": "(CYTODYN, published 2014)", "binders": {"B1": {"name": "Felinized HC 3+Felinized LC 2 (#15) antibody: 7301 (Felinized HC 3) + 7303 (Felinized LC 2) (antibody, IgG1)", "heavy": "QVQLVQSGAEVRKPGASVKIFCKASGYTFTSYYIHWLRQTPEQGREWIGWIYVGDGNTRYNEKFQGRLTLTADKSTSTAYMELSSLRSADTAIYFCARGGNGYFDYWGQDTLVTVSSDIVMTQTPLSLSVTPGEPASISCRASQDVSTALNWYLQKPGQSPRLLIYWASNRHSGVPDRFSGSGSGTDYTLRISRVEADDVGVYYCQQHYSSSLTFGPGTKLEI", "light": "B1 heavy with K13T, L37V, T40S, E42A, I48M, R59K, K63R, I93M, D110G, T111A"}, "B2": {"name": "antibody #6: 7299 (Felinized HC 1) + 7302 (Felinized LC 1) (antibody, IgG1)", "heavy": "B1 heavy with R45L, I48M, E62Q", "light": "B1 heavy"}, "B3": {"name": "antibody #10: 7300 (Felinized HC 2) + 7302 (Felinized LC 1) (antibody)", "heavy": "B1 heavy with R45L, I48M, E62Q", "light": "B1 heavy"}, "B4": {"name": "antibody #16: 7301 (Felinized HC 3) + 7304 (Felinized LC 3) (antibody)", "heavy": "B1 heavy", "light": "B1 heavy with K13T, L37V, T40S, E42A, I48M, R59K, K63R, I93M, D110G, T111A"}, "B5": {"name": "antibody #14: 7301 (Felinized HC 3) + 7302 (Felinized LC 1) (antibody, IgG1)", "heavy": "B1 heavy", "light": "B1 heavy", "notes": "Fully felinized, feline IgG1/kappa; tested as CHO supernatant"}}, "key": {"[1]": {"target": "feline LFA-1 (CD11a/CD18 heterodimer) (feline)", "assay": "cell binding assay on feline MCH-4 cells, purified antibody"}, "[2]": {"target": "feline LFA-1 (CD11a/CD18 heterodimer) (feline)", "assay": "cell binding assay on feline MCH-4 cells, CHO supernatant, HRP anti-feline IgG"}, "[3]": {"target": "feline LFA-1 (CD11a/CD18 heterodimer) (feline)", "assay": "cell binding assay on feline MCH-4 cells, CHO supernatant; against chimeric #1"}, "[4]": {"target": "feline LFA-1 (CD11a/CD18 heterodimer) (feline)", "assay": "cell binding assay on feline MCH-4 cells, purified antibody; against chimeric #1"}, "[5]": {"target": "feline LFA-1 (CD11a/CD18 heterodimer) (feline, UniProt A0ABI8A8D3 24-1171; A0ABI7ZVN3 67-787)", "assay": "cell binding assay on feline MCH-4 cells, CHO supernatant, HRP anti-feline IgG"}}, "note": "Where a chain is given by its changes, count along the chain named.", "data": [{"binder": "B1", "values": [{"measurement": "OD450 at 0.1 ug", "setting": "[1]", "result": 0.86, "unit": "OD450"}, {"measurement": "OD450 at 1 ug", "setting": "[1]", "result": 1.29, "unit": "OD450"}, {"measurement": "Relative antigen binding (normalized to parental antibody) (relative to parental)", "setting": "[2]", "result": 0.3}, {"measurement": "fold less affinity than the chimeric", "setting": "[3]", "result": 3, "unit": "fold"}, {"measurement": "Average fold change over chimeric", "setting": "[4]", "result": 0.76, "unit": "fold"}]}, {"binder": "B2", "values": [{"measurement": "Relative antigen binding (normalized to parental antibody) (relative to parental)", "setting": "[2]", "result": 0.05}]}, {"binder": "B3", "values": [{"measurement": "Relative antigen binding (normalized to parental antibody) (relative to parental)", "setting": "[2]", "result": 0.05}]}, {"binder": "B4", "values": [{"measurement": "Relative antigen binding (normalized to parental antibody) (relative to parental)", "setting": "[2]", "result": 0.05}]}, {"binder": "B5", "values": [{"measurement": "Relative antigen binding (normalized to parental antibody)", "setting": "[5]", "result": "0.06 relative to parental"}]}]}
